Here are results for two substances from PMC4266924.

Assay [1] addresses xα2(S38–S107) peptide of murine 18.5 kDa myelin basic protein (mouse). Description: NMR titration; unlabelled Fyn–SH3 titrated into 0.8 mM 15N-labelled xα2-peptide; 2D 15N-HSQC; 20 mM Hepes, 100 mM NaCl, 10% 2H2O, pH 7.4; molar ratios 1:0 to 1:1.2; fractional saturation fit of Y65 and T95 shifts; KD values are only estimates.
For assay [2], the target named is full-length, untagged 18.5-kDa murine MBP (A1-R168) (mouse). Description: ITC; Fyn-SH3 (0.7-1.3 mM) injected into the cell with MBP (45-80 uM); 20 mM HEPES, 100 mM NaCl, pH 7.4; 37 °C; 2 independent measurements; one-set of sites model; apparent values, first 3-4 points excluded (aggregation). A general note: Isothermal titration calorimetry measures the heat released or taken up as one component is titrated into another.

Assay [3] shares this target. Description: ITC; Fyn-SH3 (0.7-1.3 mM) injected into the cell with MBP (45-80 uM); 20 mM HEPES, 100 mM NaCl, pH 7.4; 22 °C; 3 independent measurements; one-set of sites model; apparent values, first 3-4 points excluded (aggregation).

Several values for one entry are separate records, joined by “and”; a condition that tells them apart may be missing. Equal entries are not always repeated.

Chain of full-length, untagged 18.5-kDa murine MBP (A1-R168) (mouse) (P02686 other isoform, or with tags, fused parts or gaps): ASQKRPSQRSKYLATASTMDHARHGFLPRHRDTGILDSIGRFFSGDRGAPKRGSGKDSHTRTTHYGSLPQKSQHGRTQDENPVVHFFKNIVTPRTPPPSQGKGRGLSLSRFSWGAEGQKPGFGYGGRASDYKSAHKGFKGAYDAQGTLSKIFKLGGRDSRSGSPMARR

Turning to “Fyn–SH3 domain (Gallus gallus Fyn tyrosine kinase, residues 85–142) (from UniProt Q05876 85-142) (domain or fragment)”, the Kd in assay [1] is 7.6 µM and 4 µM.

With “Fyn-SH3 domain (Gallus gallus Fyn, residues 85-142) (from UniProt Q05876 85-142) (domain or fragment)”, the Kd in assay [2] and in assay [3] was 5 µM each time. The stoichiometry N in assay [2] stood at 1.2; in assay [3] it was 0.6.

In general, stoichiometry N refers to the number of molecules, sites or subunits per partner or assembly.
